From paper PMC9969106

Legend:
Settings in all cases: glycan lost; control: GlyRα1WT
[1] = whole cell fraction western blot, normalized to pan-cadherin
[2] = whole-cell patch-clamp, saturating 1 mM glycine
[3] = whole-cell patch-clamp dose-response, HEK293
[4] = whole-cell patch-clamp, 100 μM glycine

B1: GlyRα1: N38Q (protein)
parent chain: MYSFNTLRLYLWETIVFFSLAASKEAEAARSAPKPMSPSDFLDKLMGRTSGYDARIRPNFKGPPVNVSCNIFINSFGSIAETTMDYRVNIFLRQQWNDPRLAYNEYPDDSLDLDPSMLDSIWKPDLFFANEKGAHFHEITTDNKLLRISRNGNVLYSIRITLTLACPMDLKNFPMDVQTCIMQLESFGYTMNDLIFEWQEQGAVQVADGLTLPQFILKEEKDLRYCTKHYNTGKFTCIEARFHLERQMGYYLIQMYIPSLLIVILSWISFWINMDAAPARVGLGITTVLTMTTQSSGSRASLPKVSYVKAIDIWMAVCLLFVFSALLEYAAVNFVSRQHKELLRFRRKRRHHKSPMLNLFQEDEAGEGRFNFSAYGMGPACLQAKDGISVKGANNSNTTNPPPAPSKSPEEMRKLFIQRAKKIDKISRIGFPMAFLIFNMFYWIIYKIVRREDVHNQ
[1]
  expression_or_secretion, other: relative expression: no change, 0.57 ± 0.13 vs 1.0 ± 0.16, GlyRα1WT 1.0 ± 0.16; GlyRα1N38Q 0.57 ± 0.13; p = 0.1118
[2]
  other: channel current, other: current amplitude: no change, 5.0 ± 0.8 vs 6.0 ± 0.6
[3]
  other: glycine potency, EC50: decreases, 206 vs 85
[4]
  other: channel current, other: current amplitude: decreases, 1.0 ± 0.3 vs 3.6 ± 0.5
